We go through 1 molecule from patent US20250277199, “NOVEL CRISPR-CAS NUCLEASES FROM METAGENOMES” (Brain Biotech AG, published 2025).

Where only a bound is given, the exact number is not on record here.

The target of this series is T1, BMC14 (uncultured bacterium (metagenome)).
T1 chain: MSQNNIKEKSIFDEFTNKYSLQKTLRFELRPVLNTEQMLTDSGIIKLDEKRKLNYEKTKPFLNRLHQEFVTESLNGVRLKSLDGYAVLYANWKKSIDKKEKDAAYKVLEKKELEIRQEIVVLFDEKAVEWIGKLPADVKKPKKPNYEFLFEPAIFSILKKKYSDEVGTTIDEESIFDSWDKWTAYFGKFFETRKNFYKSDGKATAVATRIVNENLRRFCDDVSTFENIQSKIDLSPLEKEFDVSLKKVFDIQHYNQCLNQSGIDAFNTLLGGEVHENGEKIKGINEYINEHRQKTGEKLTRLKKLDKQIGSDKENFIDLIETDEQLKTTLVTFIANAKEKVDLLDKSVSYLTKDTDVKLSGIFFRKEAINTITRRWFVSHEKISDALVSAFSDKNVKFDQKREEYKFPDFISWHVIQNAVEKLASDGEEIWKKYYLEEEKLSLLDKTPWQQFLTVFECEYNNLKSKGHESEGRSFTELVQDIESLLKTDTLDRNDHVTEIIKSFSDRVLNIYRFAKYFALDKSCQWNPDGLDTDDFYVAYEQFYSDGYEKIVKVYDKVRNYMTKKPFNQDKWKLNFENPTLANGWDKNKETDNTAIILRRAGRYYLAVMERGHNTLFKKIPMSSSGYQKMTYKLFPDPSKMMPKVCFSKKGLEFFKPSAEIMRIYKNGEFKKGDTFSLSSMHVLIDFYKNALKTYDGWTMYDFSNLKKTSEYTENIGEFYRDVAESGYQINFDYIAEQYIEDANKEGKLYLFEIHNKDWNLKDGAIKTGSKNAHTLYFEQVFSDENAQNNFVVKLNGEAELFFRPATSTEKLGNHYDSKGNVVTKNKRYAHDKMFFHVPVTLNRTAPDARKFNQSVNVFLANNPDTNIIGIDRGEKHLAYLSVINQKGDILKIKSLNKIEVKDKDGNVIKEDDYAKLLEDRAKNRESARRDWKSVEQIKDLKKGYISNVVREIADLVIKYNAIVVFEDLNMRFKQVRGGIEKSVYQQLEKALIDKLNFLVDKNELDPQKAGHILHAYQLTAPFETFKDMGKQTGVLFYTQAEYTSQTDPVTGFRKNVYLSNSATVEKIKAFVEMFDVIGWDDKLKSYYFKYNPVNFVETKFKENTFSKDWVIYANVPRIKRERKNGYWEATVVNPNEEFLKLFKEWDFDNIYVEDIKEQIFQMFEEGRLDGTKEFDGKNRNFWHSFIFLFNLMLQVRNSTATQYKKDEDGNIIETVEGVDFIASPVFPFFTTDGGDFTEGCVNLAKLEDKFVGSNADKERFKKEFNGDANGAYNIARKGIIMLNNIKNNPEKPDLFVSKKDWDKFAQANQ
As to the kind of experiment: cell_activity; PAM not stated; E. coli depletion, 30 C. The essentials:
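E. coli carrying arabinose-induced (0.2%) BMC nuclease, grown at 30° C., made electrocompetent and electroporated with 50-100 ng plasmid carrying gRNA against malQ. Transformants plated on selective M9-glucose agar with kanamycin/ampicillin (± nourseothricin), and growth scored after 48 h at 30° C.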

B1: malQ gRNA (BMC stem-loop + 24 nt spacer) ; malQ protospacer (ssRNA ; dsDNA)
RNA: GAUUUCUACUAUUGUAGAUGUGGCGGUACGUUGAUGCAUCGCG
DNA 1: GTGGCGGTACGTTGATGCATCGCG
DNA 2: CGCGATGCATCAACGTACCGCCAC
Regarding B1, the activity is above 99.9 % colony reduction.
